Data taken from publication PMC8602370, “HPF1 dynamically controls the PARP1/2 balance between initiating and elongating ADP-ribose modifications”.

Tests used:
PARP1 WT = PARP1 WT (UniProt P09874 1-1014); assay: fluorescence polarization; without HPF1; Kd only in Fig. 6f; SPR: 25 mM HEPES pH 7.4, 250 mM NaCl, 0.1 mM TCEP, 1 mM EDTA, 0.05% Tween20 (+/- 5 uM EB47); FP: 5 nM probe, 1.56-400 nM PARP1, buffer not stated; HXMS: 10 mM HEPES pD 7.0, 150 mM NaCl, RT; settings: protein: recombinant; tags: N-terminal His6; label: internal FAM (GCTGAGC FAM-TTCTGG...); dumbbell, two hairpins, central nick
PARP1 WT;HPF1 = PARP1 WT;HPF1 (human?;human, UniProt P09874;Q9NWY4 1-1014;1-346, |); assay: fluorescence polarization; 20 uM HPF1; P=0.014; SPR: 25 mM HEPES pH 7.4, 250 mM NaCl, 0.1 mM TCEP, 1 mM EDTA, 0.05% Tween20 (+/- 5 uM EB47); FP: 5 nM probe, 1.56-400 nM PARP1, buffer not stated; HXMS: 10 mM HEPES pD 7.0, 150 mM NaCl, RT; settings: protein: recombinant;recombinant; tags: N-terminal His6;none (SMT sumo-like His-tag removed with ULP1); copies: 1;1; label: internal FAM (GCTGAGC FAM-TTCTGG...); dumbbell, two hairpins, central nick
PARP1 R865A;HPF1 = PARP1 R865A;HPF1 (human?;human, UniProt P09874;Q9NWY4 1-1014;1-346, R865A|); assay: fluorescence polarization; 20 uM HPF1; no further increase vs R865A alone (P=0.087, ns); SPR: 25 mM HEPES pH 7.4, 250 mM NaCl, 0.1 mM TCEP, 1 mM EDTA, 0.05% Tween20 (+/- 5 uM EB47); FP: 5 nM probe, 1.56-400 nM PARP1, buffer not stated; HXMS: 10 mM HEPES pD 7.0, 150 mM NaCl, RT; settings: protein: recombinant;recombinant; tags: N-terminal His6;none (SMT sumo-like His-tag removed with ULP1); copies: 1;1; label: internal FAM (GCTGAGC FAM-TTCTGG...); dumbbell, two hairpins, central nick
PARP1 R865A = PARP1 R865A (UniProt P09874 1-1014, R865A); assay: fluorescence polarization; without HPF1; P=0.000039; SPR: 25 mM HEPES pH 7.4, 250 mM NaCl, 0.1 mM TCEP, 1 mM EDTA, 0.05% Tween20 (+/- 5 uM EB47); FP: 5 nM probe, 1.56-400 nM PARP1, buffer not stated; HXMS: 10 mM HEPES pD 7.0, 150 mM NaCl, RT; settings: protein: recombinant; tags: N-terminal His6; label: internal FAM (GCTGAGC FAM-TTCTGG...); dumbbell, two hairpins, central nick
Sequence of PARP1 R865A (P09874 whole entry R865A): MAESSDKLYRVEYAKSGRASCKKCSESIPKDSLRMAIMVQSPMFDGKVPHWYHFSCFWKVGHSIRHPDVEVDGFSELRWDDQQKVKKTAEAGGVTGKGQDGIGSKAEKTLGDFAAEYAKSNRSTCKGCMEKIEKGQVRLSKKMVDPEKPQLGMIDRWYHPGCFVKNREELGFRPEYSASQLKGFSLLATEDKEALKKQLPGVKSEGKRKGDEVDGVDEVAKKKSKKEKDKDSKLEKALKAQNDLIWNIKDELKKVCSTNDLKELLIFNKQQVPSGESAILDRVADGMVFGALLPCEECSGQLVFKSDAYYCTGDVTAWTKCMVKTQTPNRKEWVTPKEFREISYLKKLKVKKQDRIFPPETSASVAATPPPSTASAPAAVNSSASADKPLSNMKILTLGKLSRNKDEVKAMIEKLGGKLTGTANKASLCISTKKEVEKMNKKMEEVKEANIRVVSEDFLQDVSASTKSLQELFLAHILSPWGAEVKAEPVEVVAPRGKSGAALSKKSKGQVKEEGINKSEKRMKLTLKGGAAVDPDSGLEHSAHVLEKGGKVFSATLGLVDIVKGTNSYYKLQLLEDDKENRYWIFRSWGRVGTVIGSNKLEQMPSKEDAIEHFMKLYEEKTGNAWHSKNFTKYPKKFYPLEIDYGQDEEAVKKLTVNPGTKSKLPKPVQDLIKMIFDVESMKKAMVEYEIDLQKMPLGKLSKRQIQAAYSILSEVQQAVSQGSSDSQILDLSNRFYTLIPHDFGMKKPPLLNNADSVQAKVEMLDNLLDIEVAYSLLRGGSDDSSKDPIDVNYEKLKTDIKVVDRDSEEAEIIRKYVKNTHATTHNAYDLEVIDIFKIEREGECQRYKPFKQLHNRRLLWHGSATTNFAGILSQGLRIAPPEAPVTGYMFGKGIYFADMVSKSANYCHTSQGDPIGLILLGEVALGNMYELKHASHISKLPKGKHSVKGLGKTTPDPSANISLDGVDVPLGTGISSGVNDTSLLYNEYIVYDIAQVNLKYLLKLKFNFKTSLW

Sequence of PARP1 WT (P09874 whole entry): as the sequence (P09874 whole entry R865A) above, with A865R counted along it
Sequence of PARP1 WT;HPF1 (P09874 whole entry, chain 1 of 2): as the sequence (P09874 whole entry R865A) above, with A865R counted along it
Sequence of PARP1 WT;HPF1 (Q9NWY4 whole entry, chain 2 of 2): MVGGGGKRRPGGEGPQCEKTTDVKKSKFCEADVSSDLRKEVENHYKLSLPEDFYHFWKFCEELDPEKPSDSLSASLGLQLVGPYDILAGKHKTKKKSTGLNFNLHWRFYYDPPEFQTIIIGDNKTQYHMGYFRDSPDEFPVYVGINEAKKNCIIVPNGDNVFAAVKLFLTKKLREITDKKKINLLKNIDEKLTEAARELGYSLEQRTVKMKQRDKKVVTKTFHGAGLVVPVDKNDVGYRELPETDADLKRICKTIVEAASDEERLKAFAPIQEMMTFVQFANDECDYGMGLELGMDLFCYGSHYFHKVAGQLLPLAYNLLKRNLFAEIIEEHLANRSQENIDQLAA
Sequence of PARP1 R865A;HPF1 (P09874 whole entry R865A, chain 1 of 2): as the sequence (P09874 whole entry R865A) above
Sequence of PARP1 R865A;HPF1 (Q9NWY4 whole entry, chain 2 of 2): as the sequence (Q9NWY4 whole entry, chain 2 of 2) above

## GCTGAGCTTCTGGTGAAGCTCAGCTCGCGGCAGCTGGTGCTGCCGCGA (structured_DNA) [FAM dumbbell with central nick (FP)]
PARP1 WT
  binding result: binds
PARP1 WT;HPF1
  binding signal: ~2 fold higher affinity than PARP1 WT alone
PARP1 R865A;HPF1
  binding result: binds
PARP1 R865A
  binding signal: 4 fold higher affinity than PARP1 WT
